Test results published in PMC9449495, “Transcription factor VvibHLH93 negatively regulates proanthocyanidin biosynthesis in grapevine”.

Assays:
VvibHLH93 [1] = target: T1, VvibHLH93 (Vitis vinifera, UniProt A0ABY9CC89 1-331); assay: EMSA; LightShift Chemiluminescent EMSA Kit (Thermo Fisher) per manufacturer's protocol; buffer, salt, pH and temperature not stated; settings: protein: recombinant, tags: His (pET-32a fusion), chain copies: 2
VvibHLH93 [2] = target: T1, VvibHLH93; assay: competition; 50x unlabeled competitor vs N1; shifted band less abundant; LightShift Chemiluminescent EMSA Kit (Thermo Fisher) per manufacturer's protocol; buffer, salt, pH and temperature not stated; settings: protein: recombinant; tags: His (pET-32a fusion); chain copies: 2

T1 sequence (A0ABY9CC89 entry or part of it): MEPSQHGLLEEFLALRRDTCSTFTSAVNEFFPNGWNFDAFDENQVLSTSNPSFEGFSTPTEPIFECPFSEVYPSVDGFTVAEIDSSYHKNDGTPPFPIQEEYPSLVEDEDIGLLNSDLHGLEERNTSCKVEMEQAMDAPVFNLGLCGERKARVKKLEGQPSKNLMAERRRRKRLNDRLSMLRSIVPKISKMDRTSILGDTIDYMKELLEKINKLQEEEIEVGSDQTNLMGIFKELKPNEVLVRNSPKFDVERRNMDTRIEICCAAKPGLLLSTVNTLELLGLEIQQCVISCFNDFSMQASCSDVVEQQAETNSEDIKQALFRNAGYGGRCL

B1: VviLAR1 promoter E/G-box mutant probe (dsDNA)
DNA 1: GAGTCGTTGAGGTATATCATTTTTTTGTTAGAAAATCTTATG
DNA 2: CATAAGATTTTCTAACAAAAAAATGATATACCTCAACGACTC
binding result (VvibHLH93 [1]): no binding

B2: VviLAR1 promoter E/G-box probe (tandem MYC and G-box) (dsDNA)
DNA 1: GAGTCGTTGAGGCACATGATTTTTTTGTTAGGACGTGTTATG
DNA 2: CATAACACGTCCTAACAAAAAAATCATGTGCCTCAACGACTC
binding result (VvibHLH93 [1]; label: 3' biotin): binds

B3: VviLAR1 promoter E/G-box cold probe (dsDNA)
DNA 1: B2 DNA 1
DNA 2: B2 DNA 2
binding result (VvibHLH93 [2]): binds
